Starred links: 1 amine or outer side, 2 acyl side, 3 side chain; linkers in the order of their positions; H or OH if unused. Non-standard residues stand in square brackets, D forms with d. No end group written: not given here. Phe(2-(4-MeO-phenyl)) = COc1ccc(-c2ccccc2C[C@H](N[*:1])C(=O)[*:2])cc1; Phe(2-(4-Cl-phenyl)) = O=C([C@H](Cc1ccccc1-c1ccc(Cl)cc1)N[*:1])[*:2]; Phe(2-(4-F-phenyl)) = O=C([C@H](Cc1ccccc1-c1ccc(F)cc1)N[*:1])[*:2]; Phe(3-(3-thienyl)) = O=C([C@H](Cc1cccc(-c2ccsc2)c1)N[*:1])[*:2]; Phe(4-(3-thienyl)) = O=C([C@H](Cc1ccc(-c2ccsc2)cc1)N[*:1])[*:2]; Phe(2-vinyl) = C=Cc1ccccc1C[C@H](N[*:1])C(=O)[*:2]; Phe(2-Ph) = N[C@@H](Cc1ccccc1-c1ccccc1)C(=O)O; Bip = N[C@@H](Cc1ccc(-c2ccccc2)cc1)C(=O)O; Dmt = Cc1cc(O)cc(C)c1C[C@H](N)C(=O)O; dNMeA = CN[C@H](C)C(=O)O
B1: Dmt-D-Arg-Phe(4-phenyl)-Gly-NH2 (peptide)
peptide: [Dmt][dR][Bip]G-NH2
modifications: N-terminus assumed
SMILES: Cc1cc(O)cc(C)c1C[C@H](N)C(=O)N[C@H](CCCNC(=N)N)C(=O)N[C@@H](Cc1ccc(-c2ccccc2)cc1)C(=O)NCC(N)=O
B2: Dmt-N-Me-D-Ala-Phe(2-vinyl)-Gly-NH2 (peptide)
peptide: [Dmt][dNMeA][Phe(2-vinyl)]G-NH2
modifications: N-terminus assumed
SMILES: C=Cc1ccccc1C[C@H](NC(=O)[C@@H](C)N(C)C(=O)[C@@H](N)Cc1c(C)cc(O)cc1C)C(=O)NCC(N)=O
B3: Dmt-D-Arg-Phe(2-(4-MeO-phenyl))-Gly-NH2 (peptide)
peptide: [Dmt][dR][Phe(2-(4-MeO-phenyl))]G-NH2
modifications: N-terminus assumed
SMILES: COc1ccc(-c2ccccc2C[C@H](NC(=O)[C@@H](CCCNC(=N)N)NC(=O)[C@@H](N)Cc2c(C)cc(O)cc2C)C(=O)NCC(N)=O)cc1
B4: Dmt-D-Arg-Phe(2-(4-Cl-phenyl))-Gly-NH2 (peptide)
peptide: [Dmt][dR][Phe(2-(4-Cl-phenyl))]G-NH2
modifications: N-terminus assumed
SMILES: Cc1cc(O)cc(C)c1C[C@H](N)C(=O)N[C@H](CCCNC(=N)N)C(=O)N[C@@H](Cc1ccccc1-c1ccc(Cl)cc1)C(=O)NCC(N)=O
B5: Dmt-D-Arg-Phe(3-(3-thienyl))-Gly-NH2 (peptide)
peptide: [Dmt][dR][Phe(3-(3-thienyl))]G-NH2
modifications: N-terminus assumed
SMILES: Cc1cc(O)cc(C)c1C[C@H](N)C(=O)N[C@H](CCCNC(=N)N)C(=O)N[C@@H](Cc1cccc(-c2ccsc2)c1)C(=O)NCC(N)=O
B6: Dmt-D-Arg-Phe(2-(4-F-phenyl))-Gly-NH2 (peptide)
peptide: [Dmt][dR][Phe(2-(4-F-phenyl))]G-NH2
modifications: N-terminus assumed
SMILES: Cc1cc(O)cc(C)c1C[C@H](N)C(=O)N[C@H](CCCNC(=N)N)C(=O)N[C@@H](Cc1ccccc1-c1ccc(F)cc1)C(=O)NCC(N)=O
B7: Dmt-D-Arg-Phe(2-phenyl)-Gly-NH2 (peptide)
peptide: [Dmt][dR][Phe(2-Ph)]G-NH2
modifications: N-terminus assumed
SMILES: Cc1cc(O)cc(C)c1C[C@H](N)C(=O)N[C@H](CCCNC(=N)N)C(=O)N[C@@H](Cc1ccccc1-c1ccccc1)C(=O)NCC(N)=O
B8: Dmt-D-Arg-Phe(4-(3-thienyl))-Gly-NH2 (peptide)
peptide: [Dmt][dR][Phe(4-(3-thienyl))]G-NH2
modifications: N-terminus assumed
SMILES: Cc1cc(O)cc(C)c1C[C@H](N)C(=O)N[C@H](CCCNC(=N)N)C(=O)N[C@@H](Cc1ccc(-c2ccsc2)cc1)C(=O)NCC(N)=O

target: δ opioid receptor (UniProt P41143); experiment: not given; details: not given

Row | Molecule | IC20 (partial agonist) in the mouse vas deferens (MVD) assay [nM] | IC50 in the mouse vas deferens (MVD) assay [nM] | IC35 (partial agonist) in the mouse vas deferens (MVD) assay [nM]
1 | B1 | 3090 | – | –
2 | B2 | – | 0.689 | –
3 | B3 | – | 5.23 | –
4 | B4 | – | 1.63 | –
5 | B5 | – | – | 52.8
6 | B6 | – | 2.95 | –
7 | B7 | – | 6.99 | –
8 | B8 | 3960 | – | –

target: μ opioid receptor (UniProt P35372); experiment: not given; details: not given

Row | Molecule | IC50 in the guinea pig ileum (GPI) assay [nM]
9 | Deltorphin II (peptide) | 854
10 | B2 | 0.641
11 | B3 | 0.901
12 | B4 | 2.39
13 | B5 | 30.4
14 | B6 | 0.801
15 | B7 | 3.47

target: μ opioid receptor (MOP) (Homo sapiens, UniProt P35372); experiment: not given; type: binding; details: [125I]-DAMGO competition, HEK293 membranes
Sequence (P35372 whole entry, species assumed): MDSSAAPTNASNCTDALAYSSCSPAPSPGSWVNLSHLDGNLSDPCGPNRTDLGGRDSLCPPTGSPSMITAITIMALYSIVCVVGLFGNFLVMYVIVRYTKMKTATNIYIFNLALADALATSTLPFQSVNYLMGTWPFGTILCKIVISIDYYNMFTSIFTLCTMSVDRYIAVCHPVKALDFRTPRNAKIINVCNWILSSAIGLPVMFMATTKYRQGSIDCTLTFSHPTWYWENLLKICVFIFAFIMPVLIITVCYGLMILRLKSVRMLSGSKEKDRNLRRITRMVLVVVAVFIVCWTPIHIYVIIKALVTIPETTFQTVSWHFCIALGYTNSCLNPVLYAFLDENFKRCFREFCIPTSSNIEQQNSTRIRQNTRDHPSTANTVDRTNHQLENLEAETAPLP

Row | Molecule | MOP IC50
16 | Cc1cc(O)cc(C)c1C[C@H](N)C(=O)N[C@H](C)C(=O)N[C@@H](Cc1ccccc1-c1ccsc1)C(=O)NCC(N)=O [Compound 16, Dmt-D-Ala-Phe(2-(3-thienyl))-Gly-NH2] | poor affinity for MOP
17 | C=Cc1ccccc1C[C@H](NC(=O)[C@@H](CCCNC(=N)N)NC(=O)[C@@H](N)Cc1c(C)cc(O)cc1C)C(=O)NCC(N)=O [Compound 9, Dmt-D-Arg-Phe(2-vinyl)-Gly-NH2] | subnanomolar binding affinity

target: δ opioid receptor (UniProt P41143); experiment: radioligand binding; details: not given

Row | Molecule | IC50 [nM]
18 | B1 | 42.3
19 | B5 | 601
20 | B7 | 20.2
21 | B8 | 309

target: μ opioid receptor (UniProt P35372); experiment: radioligand binding; details: not given

Row | Molecule | IC50 [nM]
22 | B1 | 7.08
23 | B5 | 1.03
24 | B7 | 0.54
25 | B8 | 5.04

Source: article PMC6005765 (Bioorganic & medicinal chemistry letters, 2018)
